# From article PMC3426363 (Pharmaceutical research, 2011)
# Tests used:
# Assay type in all cases: in vitro ADME, human
# UGT1A isoforms = conditions: across the UGT1A isoforms used (Tab.S1)
# [1] = substrate: O=c1c(O)c(-c2ccccc2)oc2cc(O)cc(O)c12; test: UGT1A10 glucuronidation kinetics of flavonols; conditions: other: UGT1A10, pH 6.5
# [2] = substrate: O=c1c(O)c(-c2ccccc2)oc2cc(O)ccc12; test: UGT1A10 glucuronidation kinetics of flavonols; conditions: other: UGT1A10, pH 6.5
# [3] = substrate: O=c1c(O)c(-c2ccc(O)cc2)oc2cc(O)cc(O)c12; test: UGT1A10 glucuronidation kinetics of flavonols; conditions: other: UGT1A10, pH 6.5
# [4] = substrate: O=c1c(O)c(-c2ccccc2)oc2cc(O)cc(O)c12; test: UGT1A8 glucuronidation kinetics of flavonols; conditions: other: UGT1A8, pH 6.5
# [5] = substrate: O=c1c(O)c(-c2ccccc2)oc2cc(O)ccc12; test: UGT1A8 glucuronidation kinetics of flavonols; conditions: other: UGT1A8, pH 6.5
# [6] = substrate: O=c1c(O)c(-c2ccc(O)cc2)oc2cc(O)cc(O)c12; test: UGT1A8 glucuronidation kinetics of flavonols; conditions: other: UGT1A8, pH 6.5
# [7] = substrate: O=c1c(O)c(-c2ccccc2)oc2cc(O)cc(O)c12; test: UGT1A7 glucuronidation kinetics of flavonols; conditions: other: UGT1A7, pH 6.5
# [8] = substrate: O=c1c(O)c(-c2ccccc2)oc2cc(O)ccc12; test: UGT1A7 glucuronidation kinetics of flavonols; conditions: other: UGT1A7, pH 6.5
# [9] = substrate: O=c1c(O)c(-c2ccc(O)cc2)oc2cc(O)cc(O)c12; test: UGT1A7 glucuronidation kinetics of flavonols; conditions: other: UGT1A7, pH 6.5
# [10] = substrate: O=c1c(O)c(-c2ccccc2)oc2cc(O)ccc12; test: UGT1A9 glucuronidation kinetics of flavonols; conditions: other: UGT1A9, pH 6.5
# [11] = substrate: O=c1c(O)c(-c2ccc(O)cc2)oc2cc(O)ccc12; test: UGT1A9 glucuronidation kinetics of flavonols; conditions: other: UGT1A9, pH 6.5
# [12] = substrate: O=c1c(O)c(-c2ccc(O)cc2)oc2cc(O)cc(O)c12; test: UGT1A9 glucuronidation kinetics of flavonols; conditions: other: UGT1A9, pH 6.5
molecule,measurement,setting,value
"COc1ccc2c(=O)cc(-c3ccc(O)cc3)oc2c1 [4’H7MF, 4'-hydroxy-7-methoxyflavone]",glucuronidation rate,UGT1A isoforms,≤ 0.9 nmol/mg/min
"COc1cc(O)c2c(=O)cc(-c3ccc(O)cc3)oc2c1 [5,4’DH7MF, 5,4'-dihydroxy-7-methoxyflavone]",glucuronidation rate,UGT1A isoforms,≤ 0.9 nmol/mg/min
"COc1cc(O)c2c(=O)cc(-c3ccccc3)oc2c1 [5H7MF, 5-hydroxy-7-methoxyflavone]",glucuronidation rate,UGT1A isoforms,≤ 0.9 nmol/mg/min
"O=c1cc(-c2ccccc2)oc2cccc(O)c12 [5HF, 5-hydroxyflavone]",glucuronidation rate,UGT1A isoforms,≤ 0.9 nmol/mg/min
"O=c1cc(-c2ccc(O)cc2)oc2ccccc12 [4’HF, 4'-hydroxyflavone]",glucuronidation rate,UGT1A isoforms,≤ 0.9 nmol/mg/min
"COc1ccc2oc(-c3ccc(O)cc3)cc(=O)c2c1 [4’H6MF, 4'-hydroxy-6-methoxyflavone]",glucuronidation rate,UGT1A isoforms,≤ 0.9 nmol/mg/min
"O=c1cc(-c2ccc(O)cc2)oc2cccc(O)c12 [5,4’DHF, 5,4'-dihydroxyflavone]",glucuronidation rate,UGT1A isoforms,≤ 0.9 nmol/mg/min
"COc1cccc2oc(-c3ccc(O)cc3)cc(=O)c12 [4’H5MF, 4'-hydroxy-5-methoxyflavone]",glucuronidation rate,UGT1A isoforms,≤ 0.9 nmol/mg/min
UGT1A10 (Homo sapiens) (protein) GKLLVVPMDGSHWFTMQSVVEKLILRGHEVVVVMPEVSWQLERSLNCTVKTYSTSYTLEDQNREFMVFAHAQWKAQAQSIFSLLMSSSSGFLDLFFSHCRSLFNDRKLVEYLKESSFDAVFLDPFDTCGLIVAKYFSLPSVVFTRGIFCHHLEEGAQCPAPLSYVPNDLLGFSDAMTFKERVWNHIVHLEDHLFCQYLFRNALEIASEILQTPVTAYDLYSHTSIWLLRTDFVLDYPKPVMPNMIFIGGINCHQGKPLPMEFEAYINASGEHGIVVFSLGSMVSEIPEKKAMAIADALGKIPQTVLWRYTGTRPSNLANNTILVKWLPQNDLLGHPMTRAFITHAGSHGVYESICNGVPMVMMPLFGDQMDNAKRMETKGAGVTLNVLEMTSEDLENALKAVINDKSYKENIMRLSSLHKDRPVEPLDLAVFWVEFVMRHKGAPHLRPAAHDLTWYQYHSLDVIGFLLAVVLTVAFITFKCCAYGYRKCLGKKGRVKKAHKSKTH,Km,[1]; formation of 3-O-glucuronide,4.49 ± 0.61 µM
same,Vmax,[1]; formation of 3-O-glucuronide,2.01 ± 0.14 nmol/mg/min
same,Vmax/Km,[1]; formation of 3-O-glucuronide,450 µL/min/mg
same,Km,[1]; formation of 7-O-glucuronide,3.96 ± 0.58 µM
same,Vmax,[1]; formation of 7-O-glucuronide,0.77 ± 0.04 nmol/mg/min
same,Vmax/Km,[1]; formation of 7-O-glucuronide,190 µL/min/mg
same,Km,[2]; formation of 3-O-glucuronide,6.66 ± 0.66 µM
same,Vmax,[2]; formation of 3-O-glucuronide,0.19 ± 0.01 nmol/mg/min
same,Vmax/Km,[2]; formation of 3-O-glucuronide,30 µL/min/mg
same,Km,[2]; formation of 7-O-glucuronide,8.74 ± 1.37 µM
same,Vmax,[2]; formation of 7-O-glucuronide,0.26 ± 0.02 nmol/mg/min
same,Vmax/Km,[2]; formation of 7-O-glucuronide,30 µL/min/mg
same,Km,[3]; formation of 3-O-glucuronide,2.44 ± 0.55 µM
same,Vmax,[3]; formation of 3-O-glucuronide,1.46 ± 0.16 nmol/mg/min
same,Vmax/Km,[3]; formation of 3-O-glucuronide,600 µL/min/mg
same,Km,[3]; formation of 7-O-glucuronide,3.34 ± 1.21 µM
same,Vmax,[3]; formation of 7-O-glucuronide,1.10 ± 0.20 nmol/mg/min
same,Vmax/Km,[3]; formation of 7-O-glucuronide,330 µL/min/mg
UGT1A8 (Homo sapiens) (protein) GKLLVVPMDGSHWFTMQSVVEKLILRGHEVVVVMPEVSWQLGKSLNCTVKTYSTSYTLEDLDREFMDFADAQWKAQVRSLFSLFLSSSNGFFNLFFSHCRSLFNDRKLVEYLKESSFDAVFLDPFDACGLIVAKYFSLPSVVFARGIACHYLEEGAQCPAPLSYVPRILLGFSDAMTFKERVRNHIMHLEEHLFCQYFSKNALEIASEILQTPVTAYDLYSHTSIWLLRTDFVLDYPKPVMPNMIFIGGINCHQGKPLPMEFEAYINASGEHGIVVFSLGSMVSEIPEKKAMAIADALGKIPQTVLWRYTGTRPSNLANNTILVKWLPQNDLLGHPMTRAFITHAGSHGVYESICNGVPMVMMPLFGDQMDNAKRMETKGAGVTLNVLEMTSEDLENALKAVINDKSYKENIMRLSSLHKDRPVEPLDLAVFWVEFVMRHKGAPHLRPAAHDLTWYQYHSLDVIGFLLAVVLTVAFITFKCCAYGYRKCLGKKGRVKKAHKSKTH,Km,[4]; formation of 3-O-glucuronide,6.44 ± 1.28 µM
same,Vmax,[4]; formation of 3-O-glucuronide,3.89 ± 0.47 nmol/mg/min
same,Vmax/Km,[4]; formation of 3-O-glucuronide,600 µL/min/mg
same,Km,[4]; formation of 7-O-glucuronide,4.88 ± 1.14 µM
same,Vmax,[4]; formation of 7-O-glucuronide,0.79 ± 0.57 nmol/mg/min
same,Vmax/Km,[4]; formation of 7-O-glucuronide,160 µL/min/mg
same,Km,[5]; formation of 3-O-glucuronide,8.68 ± 1.21 µM
same,Vmax,[5]; formation of 3-O-glucuronide,0.76 ± 0.04 nmol/mg/min
same,Vmax/Km,[5]; formation of 3-O-glucuronide,90 µL/min/mg
same,Km,[5]; formation of 7-O-glucuronide,27.32 ± 7.50 µM
same,Vmax,[5]; formation of 7-O-glucuronide,0.65 ± 0.10 nmol/mg/min
same,Vmax/Km,[5]; formation of 7-O-glucuronide,20 µL/min/mg
same,Km,[6]; formation of 3-O-glucuronide,2.39 ± 0.47 µM
same,Vmax,[6]; formation of 3-O-glucuronide,0.74 ± 0.04 nmol/mg/min
same,Vmax/Km,[6]; formation of 3-O-glucuronide,310 µL/min/mg
same,Km,[6]; formation of 7-O-glucuronide,6.77 ± 1.78 µM
same,Vmax,[6]; formation of 7-O-glucuronide,1.01 ± 0.09 nmol/mg/min
same,Vmax/Km,[6]; formation of 7-O-glucuronide,150 µL/min/mg
UGT1A7 (Homo sapiens) (protein) GKLLVVPMDGSHWFTMQSVVEKLILRGHEVVVVMPEVSWQLGRSLNCTVKTYSTSYTLEDQDREFMVFADARWTAPLRSAFSLLTSSSNGIFDLFFSNCRSLFNDRKLVEYLKESCFDAVFLDPFDACGLIVAKYFSLPSVVFARGIFCHYLEEGAQCPAPLSYVPRLLLGFSDAMTFKERVWNHIMHLEEHLFCPYFFKNVLEIASEILQTPVTAYDLYSHTSIWLLRTDFVLEYPKPVMPNMIFIGGINCHQGKPVPMEFEAYINASGEHGIVVFSLGSMVSEIPEKKAMAIADALGKIPQTVLWRYTGTRPSNLANNTILVKWLPQNDLLGHPMTRAFITHAGSHGVYESICNGVPMVMMPLFGDQMDNAKRMETKGAGVTLNVLEMTSEDLENALKAVINDKSYKENIMRLSSLHKDRPVEPLDLAVFWVEFVMRHKGAPHLRPAAHDLTWYQYHSLDVIGFLLAVVLTVAFITFKCCAYGYRKCLGKKGRVKKAHKSKTH,Km,[7]; formation of 3-O-glucuronide,0.82 ± 0.08 µM
same,Vmax,[7]; formation of 3-O-glucuronide,3.35 ± 0.11 nmol/mg/min
same,Km,[7]; formation of 7-O-glucuronide,21.43 ± 6.09 µM
same,Vmax,[7]; formation of 7-O-glucuronide,2.46 ± 0.34 nmol/mg/min
same,Vmax/Km,[7]; formation of 7-O-glucuronide,110 µL/min/mg
same,Km,[8]; formation of 3-O-glucuronide,1.61 ± 0.14 µM
same,Vmax,[8]; formation of 3-O-glucuronide,2.04 ± 0.07 nmol/mg/min
same,Vmax/Km,[8]; formation of 3-O-glucuronide,1270 µL/min/mg
same,Km,[8]; formation of 7-O-glucuronide,23.17 ± 6.96 µM
same,Vmax,[8]; formation of 7-O-glucuronide,0.44 ± 0.07 nmol/mg/min
same,Vmax/Km,[8]; formation of 7-O-glucuronide,20 µL/min/mg
same,Km,[9]; formation of 3-O-glucuronide,1.46 ± 0.32 µM
same,Vmax,[9]; formation of 3-O-glucuronide,0.77 ± 0.04 nmol/mg/min
same,Vmax/Km,[9]; formation of 3-O-glucuronide,530 µL/min/mg
same,Km,[9]; formation of 7-O-glucuronide,11.56 ± 2.91 µM
same,Vmax,[9]; formation of 7-O-glucuronide,1.10 ± 0.11 nmol/mg/min
same,Vmax/Km,[9]; formation of 7-O-glucuronide,100 µL/min/mg
UGT1A9 (Homo sapiens) (protein) GKLLVVPMDGSHWFTMRSVVEKLILRGHEVVVVMPEVSWQLGRSLNCTVKTYSTSYTLEDLDREFKAFAHAQWKAQVRSIYSLLMGSYNDIFDLFFSNCRSLFKDKKLVEYLKESSFDAVFLDPFDNCGLIVAKYFSLPSVVFARGILCHYLEEGAQCPAPLSYVPRILLGFSDAMTFKERVRNHIMHLEEHLLCHRFFKNALEIASEILQTPVTEYDLYSHTSIWLLRTDFVLDYPKPVMPNMIFIGGINCHQGKPLPMEFEAYINASGEHGIVVFSLGSMVSEIPEKKAMAIADALGKIPQTVLWRYTGTRPSNLANNTILVKWLPQNDLLGHPMTRAFITHAGSHGVYESICNGVPMVMMPLFGDQMDNAKRMETKGAGVTLNVLEMTSEDLENALKAVINDKSYKENIMRLSSLHKDRPVEPLDLAVFWVEFVMRHKGAPHLRPAAHDLTWYQYHSLDVIGFLLAVVLTVAFITFKCCAYGYRKCLGKKGRVKKAHKSKTH,Km,[10]; formation of 3-O-glucuronide,0.22 ± 0.04 µM
same,Vmax,[10]; formation of 3-O-glucuronide,4.60 ± 0.28 nmol/mg/min
same,Vmax/Km,[10]; formation of 3-O-glucuronide,20910 µL/min/mg
same,Km,[10]; formation of 7-O-glucuronide,1.50 ± 0.26 µM
same,Vmax,[10]; formation of 7-O-glucuronide,2.04 ± 0.09 nmol/mg/min
same,Vmax/Km,[10]; formation of 7-O-glucuronide,1360 µL/min/mg
same,Km,[11]; formation of 3-O-glucuronide,0.36 ± 0.03 µM
same,Vmax,[11]; formation of 3-O-glucuronide,2.62 ± 0.05 nmol/mg/min
same,Vmax/Km,[11]; formation of 3-O-glucuronide,7280 µL/min/mg
same,Km,[11]; formation of 7-O-glucuronide,2.67 ± 0.56 µM
same,Vmax,[11]; formation of 7-O-glucuronide,1.15 ± 0.08 nmol/mg/min
same,Vmax/Km,[11]; formation of 7-O-glucuronide,430 µL/min/mg
same,Km,[12]; formation of 3-O-glucuronide,0.32 ± 0.03 µM
same,Vmax,[12]; formation of 3-O-glucuronide,1.92 ± 0.03 nmol/mg/min
same,Vmax/Km,[12]; formation of 3-O-glucuronide,6000 µL/min/mg
same,Km,[12]; formation of 7-O-glucuronide,3.87 ± 0.59 µM
same,Vmax,[12]; formation of 7-O-glucuronide,0.87 ± 0.05 nmol/mg/min
same,Vmax/Km,[12]; formation of 7-O-glucuronide,220 µL/min/mg
